In patent US20050202025A1:

Biological target: FbsA on cells of S. agalactiae O90R (Streptococcus agalactiae)
Assay: increasing fibrinogen on S. agalactiae O90R cells immobilised on microtiter wells; apparent KD from the concentration for half maximal binding

Substance: human fibrinogen (from UniProt P02671 20-629; P02675 31-491; P02679 27-437) (ligand)
- Kd: 25 nM
